Results on five molecules are retold here after paper PMC6251713 (Immunity, 2018).

In general, Kd refers to the free concentration of one partner at which half of the binding sites on the other are occupied at equilibrium, for simple one-to-one binding. A high value points to a looser complex. One may read the stoichiometry N as the number of molecules, sites or subunits per partner or assembly.

B2: human IFIT1 (natural protein, UniProt P09914-1 1-478, looked up)
chain: MSTNGDDHQVKDSLEQLRCHFTWELSIDDDEMPDLENRVLDQIEFLDTKYSVGIHNLLAYVKHLKGQNEEALKSLKEAENLMQEEHDNQANVRSLVTWGNFAWMYYHMGRLAEAQTYLDKVENICKKLSNPFRYRMECPEIDCEEGWALLKCGGKNYERAKACFEKVLEVDPENPESSAGYAISAYRLDGFKLATKNHKPFSLLPLRQAVRLNPDNGYIKVLLALKLQDEGQEAEGEKYIEEALANMSSQTYVFRYAAKFYRRKGSVDKALELLKKALQETPTSVLLHHQIGLCYKAQMIQIKEATKGQPRGQNREKLDKMIRSAIFHFESAVEKKPTFEVAHLDLARMYIEAGNHRKAEENFQKLLCMKPVVEETMQDIHFHYGRFQEFQKKSDVNAIIHYLKAIKIEQASLTRDKSINSLKKLVLRKLRRKALDLESLSLLGFVYKLEGNMNEALEYYERALRLAADFENSVRQGP
B4: human IFIT3 (natural protein, UniProt O14879 1-490, looked up)
chain: MSEVTKNSLEKILPQLKCHFTWNLFKEDSVSRDLEDRVCNQIEFLNTEFKATMYNLLAYIKHLDGNNEAALECLRQAEELIQQEHADQAEIRSLVTWGNYAWVYYHLGRLSDAQIYVDKVKQTCKKFSNPYSIEYSELDCEEGWTQLKCGRNERAKVCFEKALEEKPNNPEFSSGLAIAMYHLDNHPEKQFSTDVLKQAIELSPDNQYVKVLLGLKLQKMNKEAEGEQFVEEALEKSPCQTDVLRSAAKFYRRKGDLDKAIELFQRVLESTPNNGYLYHQIGCCYKAKVRQMQNTGESEASGNKEMIEALKQYAMDYSNKALEKGLNPLNAYSDLAEFLETECYQTPFNKEVPDAEKQQSHQRYCNLQKYNGKSEDTAVQHGLEGLSISKKSTDKEEIKDQPQNVSENLLPQNAPNYWYLQGLIHKQNGDLLQAAKCYEKELGRLLRDAPSGIGSIFLSASELEDGSEEMGQGAVSSSPRELLSNSEQLN

Assay [1] has as its target B4. In words: ITC. In general terms: ITC needs no label: the signal is the heat of the interaction.
The target in assay [2] is T1, maltose binding protein (MBP)-tagged IFIT1 (human, UniProt P09914-1 1-478).
T1 sequence (looked up): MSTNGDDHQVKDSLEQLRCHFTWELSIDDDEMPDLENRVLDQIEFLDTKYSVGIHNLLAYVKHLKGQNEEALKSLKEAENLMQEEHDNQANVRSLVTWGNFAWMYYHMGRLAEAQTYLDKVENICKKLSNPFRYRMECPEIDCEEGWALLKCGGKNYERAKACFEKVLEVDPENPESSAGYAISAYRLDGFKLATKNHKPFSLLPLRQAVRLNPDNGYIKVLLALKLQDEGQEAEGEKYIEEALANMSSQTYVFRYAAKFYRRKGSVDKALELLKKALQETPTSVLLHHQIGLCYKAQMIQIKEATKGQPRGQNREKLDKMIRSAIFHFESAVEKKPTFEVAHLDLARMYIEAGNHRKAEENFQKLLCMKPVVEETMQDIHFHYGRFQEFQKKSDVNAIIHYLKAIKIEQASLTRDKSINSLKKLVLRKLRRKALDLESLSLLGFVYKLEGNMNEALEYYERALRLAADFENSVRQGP
In words: pull-down.

Assay [3] concerns the target B2. As to the kind of experiment: ITC.

B1: IFIT1 RNA binding mutant (R38A and K151A) (natural protein, human, UniProt P09914-1 1-478, looked up)
chain: MSTNGDDHQVKDSLEQLRCHFTWELSIDDDEMPDLENAVLDQIEFLDTKYSVGIHNLLAYVKHLKGQNEEALKSLKEAENLMQEEHDNQANVRSLVTWGNFAWMYYHMGRLAEAQTYLDKVENICKKLSNPFRYRMECPEIDCEEGWALLACGGKNYERAKACFEKVLEVDPENPESSAGYAISAYRLDGFKLATKNHKPFSLLPLRQAVRLNPDNGYIKVLLALKLQDEGQEAEGEKYIEEALANMSSQTYVFRYAAKFYRRKGSVDKALELLKKALQETPTSVLLHHQIGLCYKAQMIQIKEATKGQPRGQNREKLDKMIRSAIFHFESAVEKKPTFEVAHLDLARMYIEAGNHRKAEENFQKLLCMKPVVEETMQDIHFHYGRFQEFQKKSDVNAIIHYLKAIKIEQASLTRDKSINSLKKLVLRKLRRKALDLESLSLLGFVYKLEGNMNEALEYYERALRLAADFENSVRQGP
B1 displayed a Kd in assay [1] of 2.1 ± 6 nM.
On the same count and under the same terms, the same measure for B2: 1.5 ± 2 nM.

B3: chimeric construct Ifit3-IFIT3CTD (other, mouse | human, UniProt Q64345 1-403, looked up)
chain: MSEVNRESLEAILPQLKCHFTWNLFREGSMSSHMEDRVCNQVEHLNSEEKATMYDLLAYIKHLDGESKAALECLGQAEDLRKSEHNDQSEIRRLVTWGNYAWIYYHMGRLSEAQAYVDKVRQVCQKFANPYSMECPELECEEGWTRLKCGRNERAKMCFEKALEEKPKDPECSSGMAIAMFRLEEKPEKQFSVDALKQAMELNPQNQYLKVLLALKLLRMGEEAEGERLIKDALGKAPNQTDVLQKAAQFYKKKGNLDRAIELLGKALRSTVNNSPLYSLVMCRYREILEQLQNKGDADSSERRQRMAELRRLTMEFMQKTLQRRRSPLNSYSDLIDFPEVERCYQMVISKESPDVEEEDLYERYCNLQEYHRKSEDLAALECLLQFPRNERSIEKEEVKEQTQNVSENLLPQNAPNYWYLQGLIHKQNGDLLQAAKCYEKELGRLLRDAPSGIGSIFLSASELEDGSEEMGQGAVSSSPRELLSNSEQLN
Consider B3, for which the binding result in assay [2] is “binds”.
Consider B4, for which, in assay [3], the dH is -13 kcal/mol and the “stoichiometry N” value is 0.93 ± 0.01.

B5: IFIT3 403–490 (IFIT3CTD) (domain or fragment, human, UniProt O14879 403-490, looked up)
chain: QNVSENLLPQNAPNYWYLQGLIHKQNGDLLQAAKCYEKELGRLLRDAPSGIGSIFLSASELEDGSEEMGQGAVSSSPRELLSNSEQLN
For B5, in assay [3], binding was put at a Kd of 1.4 ± 3.1 nM, the dH was -17 kcal/mol and the “stoichiometry N” value is 0.97 ± 0.03.
